Data reported in paper PMC4641746 (Cell, 2015).

Key:
[1] = molecular target: Y46K/V66D mutant of H84T BanLec (recombinant, His-tagged) (Musa acuminata); assay: 15N NMR spin relaxation
[2] = molecular target: Y46K/V66D mutant of WT BanLec (recombinant, His-tagged) (Musa acuminata); assay: 15N NMR spin relaxation
[3] = molecular target: T1, BanLec (banana lectin), recombinant His-tagged WT (Musa acuminata, UniProt O22321, H84T); assay: isothermal titration calorimetry; assay type: binding; details: dimannoside linkage not printed in main text
T1 sequence (O22321 1-141 H84T): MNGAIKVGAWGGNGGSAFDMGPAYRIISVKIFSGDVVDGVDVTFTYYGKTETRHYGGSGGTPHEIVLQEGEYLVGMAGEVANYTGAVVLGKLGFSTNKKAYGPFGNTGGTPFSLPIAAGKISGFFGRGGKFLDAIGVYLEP

Substance: Y46K/V66D mutant of H84T BanLec (recombinant, His-tagged) (natural protein)
- stoichiometry N [1]: 2

Substance: Y46K/V66D mutant of WT BanLec (recombinant, His-tagged) (natural protein)
- stoichiometry N [2]: 2

Substance: dimannoside [M2]
- Ka [3]: 227
